Test results from PMC10053369, “Recombinant Analogs of Sea Anemone Kunitz-Type Peptides Influence P2X7 Receptor Activity in Neuro-2a Cells” (Marine Drugs, 2023).
Positions of bridges follow the written chain, without caps; N, C: chain ends. No end group written: not given here.

Key:
[1] = target: T1, hP2X7 (47-334 a.a., extracellular domain, 36.8 kDa) (human) (UniProt Q99572)
T1 sequence: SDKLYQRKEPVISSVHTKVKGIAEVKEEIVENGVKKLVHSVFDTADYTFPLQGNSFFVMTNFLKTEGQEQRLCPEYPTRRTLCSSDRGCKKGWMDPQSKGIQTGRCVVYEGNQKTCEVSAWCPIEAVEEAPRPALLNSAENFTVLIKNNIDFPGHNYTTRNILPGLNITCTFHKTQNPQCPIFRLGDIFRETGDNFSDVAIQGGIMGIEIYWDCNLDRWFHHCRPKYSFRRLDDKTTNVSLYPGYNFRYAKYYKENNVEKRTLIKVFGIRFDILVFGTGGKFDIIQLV

[2] = target: T1, hP2X7 (47-334 a.a., extracellular domain, 36.8 kDa) (human); assay: SPR; Biacore 3000, hP2X7 extracellular domain amine-coupled to a CM5 chip (12300 RU), peptides 5-100 uM injected as analytes at 10 uL/min for 6 min, 25 °C, HBS-N (10 mM HEPES, 150 mM NaCl, pH 7.4); fitted with 1:1 Langmuir or two-state (conformational change) model; set-up: kon2 (two-state model, step CP to CP*): unit not given here
[3] = system: cultured neurons of the dorsal horn of the spinal cord; conditions: cited from earlier work
Text: Activated P2X7 has also been reported to alter reactive oxygen species (ROS) in microglia/macrophages as was shown, for example, in primary rat microglial cells. In cultured neurons of the dorsal horn of the spinal ...

Neuro-2a cells [4] = assay: [Ca2+]i in Ca2+-free medium (Fluo-8 AM); assay type: cell-based, mouse; conditions: for [Ca2+]i in Ca-free medium: ionomycin 10 μM in the presence of ATP 1 mM, or BHQ 50 μM, n = 6
Experimental: (§1) Neuro-2a cells were seeded in 96-well plates at a density of 4 × 10^4 cells/well and incubated in DMEM for 24 h at 37 °C, 5% CO2. Then the cells were washed twice with culture medium and loaded with 5 μM Fluo-8 AM (Abcam, Cambridge, UK) dye and 1 μM Pluronic® F-127 (Sigma-Aldrich, St. Louis, MO, USA), and incubated for 40 min at 37 °C in HBSS: 140 mM NaCl, 5 mM KCl, 0.8 mM MgCl2, 2 mM CaCl2, 10 mM glucose, 10 mM HEPES, pH 7.4. Then the cells were washed two times with the same solution but without the fluorescent dye and treated with the studied peptides for 30 min at RT in the dark. In some experiments Ca^2+-free medium was used: 140 mM NaCl, 5 mM KCl, 0.8 mM MgCl2, 10 mM glucose, 10 mM HEPES, 5 mM EGTA, pH 7.4. ATP (1 mM final concentration) was added using a microinjector (20 μL/well) 10 s later the baseline recording and the readings were taken up to 50 s in 1 s intervals. The standard P2X7 inhibitor, A438079 (Sigma-Aldrich, St. Louis, MO, USA), was used as inhibitory control. Ionomycin (Sigma-Aldrich, St. Louis, MO, USA) and BHQ were used to generate a generic calcium signal in cells. 2,5,-di(t-butyl) hydroquinone (BHQ) was synthesized and kindly provided by Dr. Polonik S.N. (PIBOC FEBRAS). Fluo-8 was excited at 485 nm, and the emission at 520 nm was measured with a PHERAstar®FS plate reader (BMG LABTECH, Ortenberg, Germany). The data were processed by MARS Data Analysis v. 3.01R2 (BMG Labtech, Ortenberg, Germany). Mean values and standard error of peak height calcium were calculated.
The following supporting information can be downloaded at: https://www.mdpi.com/article/10.3390/md21030192/s1, Figure S1: The RP-HPLC elution profiles of Kunitz peptides: HCRG1 (a), HCRG2 (b), and HCRG7 (c), on a Jupiter C4 column (Phenomenex, USA), equilibrated by 0.1% TFA, in a gradient of acetonitrile concentration (0–70%) for 70 min at 1.5 mL/min. MALDI mass spectra of the average molecular weight of peptides are shown in the insert. Black solid lines accentuate fractions from which the peptides were isolated. Figure S2: 1H NMR spectra of HCRG1 (a) and HCRG7 (b). Figure S3. […]

Neuro-2a cells [5] = assay: Cytoprotection against ATP-induced cell death (MTT assay); assay type: cell-based, mouse; conditions: 4 mM ATP, 48 h
Experimental: (§2) Neuro-2a neuroblastoma cells (ATCC® CCL-131™) were obtained from American Type Culture Collection (Manassas, VA, USA). The cells were cultivated in DMEM medium (BioloT, St. Petersburg, Russia) supplemented with 10% of fetal bovine serum (BioloT, St. Petersburg, Russia) and 1% penicillin/streptomycin (BioloT, St. Petersburg, Russia) at 37 °C and 5% CO2. Initially, cells were incubated in cultural flasks until sub-confluent (~80%). For testing, Neuro-2a cells were seeded in 96-well plates and experiments were started after 24 h.
The cytoprotective effect of peptides was assessed in Neuro-2a cells using the MTT assay. In brief, an aliquot (180μL) of cell suspension with a nominal cell density of 3 × 10^4 cells/well was dispensed into 96-well plates. The cells were incubated for 24 h in a humidified atmosphere containing 5% CO2 to allow cell attachment. At the end of the preincubation period, ATP (Sigma-Aldrich, St. Louis, MO, USA) was added to the cells at a concentration of 4 mM. Studied peptides were added to the cells at concentrations of 0.1, 1.0 or 10.0 μM for 1h prior to the addition of ATP. After incubation for 48 h at 37 °C cell viability was detected using the MTT as described previously. The standard P2X7 inhibitor, A438079 (Sigma-Aldrich, St. Louis, MO, USA), at a concentration of 10 μM was used as a positive control.
(§3) All data were obtained in three independent replicates and calculated values were expressed as mean ± standard error of the mean (SEM). The Student’s t-test was performed using SigmaPlot 14.0 (Systat Software Inc., San Jose, CA, USA) to determine statistical significance.

P2X7 in Neuro-2a cells = assay: ATP-induced Ca2+ influx (Fluo-8 AM); assay type: cell-based, mouse; conditions: 1 mM ATP
Experimental: as §2, §1, §3

[6] = target: T1, hP2X7 (47-334 a.a., extracellular domain, 36.8 kDa) (human); remark: listed apart in the source
[7] = target: T2, hP2X7 (47–334 a.a., extracellular domain, 36.8 kDa) (Homo sapiens, UniProt Q99572); assay: Surface plasmon resonance (Biacore 3000); assay type: binding; conditions: model: binding 1:1 (Langmuir), 25 °C, HBS-N pH 7.4, n = 3
T2 construct: hP2X7 (47–334 a.a., extracellular domain, 36.8 kDa); purchased Abbexa LTD, Cambridge, UK abx167020
T2 sequence (Q99572 47-334): T1 sequence
Experimental: SPR analysis was performed at 25 °C using a Biacore® 3000 optical biosensor (GE Healthcare, Chicago, IL, USA) and CM5 sensor chips. HBS-N (10 mM HEPES, 150 mM NaCl, pH 7.4) (Cytiva, Chicago, IL, USA) was used as a working buffer for the immobilization of hP2X7 (47–334 a.a., extracellular domain, 36.8 kDa) (abx167020 Abbexa LTD, Cambridge, UK). The carboxyl groups of the dextran biosensor chip were activated for 5 min by introducing a 1:1 mixture of 0.2 M 1-ethyl-3-(3-dimethylaminopropyl)carbodiimide hydrochloride (EDC) and 0.05 M N-hydroxysuccinimide (NHS) at a rate of 5 µL/min followed by a 1 min wash with HBS-N buffer at the same flow rate. Next, hP2X7 (15 μg/mL) in 10 mM sodium acetate (pH 5.0) was injected into the working channel of the biosensor for 10 min at a flow rate of 5 μL/min. The final level of immobilization was 12300 RU (12.3 ng of protein). The control channel without immobilized P2X7R was used to correct the effects of the nonspecific binding of analytes to the chip surface.
Lyophilized peptides were prepared as 100 μM stock solutions in HBS-N buffer. Experimental peptide samples were prepared in the range of 5–100 μM. The samples were injected through the channels of the biosensor (working and reference) at a flow rate of 10 μL/min for 6 min. The dissociation of the formed peptide/P2X7 complexes was recorded for at least 6 min from the moment of injection at the same flow rate after the injection of the sample. After each cycle of the biosensor, the bound analyte was removed by double injection of the regenerating solution (2 M NaCl, 1% CHAPS) at a flow rate of 30 μL/min for 30 s.
SPR sensorgrams were processed in Biacore 3000 Evaluation Software v.1.0 (GE Healthcare, Chicago, IL, USA) and BIAevaluation Software v. 4.1.1 (GE Healthcare, Chicago, IL, USA) using “1:1 binding (Langmuir)” and “two-state binding (conformational change)” data processing models.
The 1:1 (Langmuir) binding model is a 1:1 interaction model between a compound (C) and an immobilized protein (P) and is equivalent to the Langmuir isotherm for surface adsorption: C + P ↔ CP.
The two-state binding (conformational change) model describes the 1:1 binding of a compound (C) to an immobilized protein (P) followed by a conformational change in the complex (CP ↔ CP*). It is assumed that the conformationally changed complex can dissociate only by the reverse conformational change: C + P ↔ CP ↔ CP*. The final kinetic parameters were obtained from the models that best agree with the experimental curves for the minimum of the obtained value of chi2. The equations describing the models used are as follows: • (1) 1:1 (Langmuir) binding: Kd = koff/kon, where Kd is the equilibrium dissociation constant, koff is the dissociation rate constant, kon is the association rate constant. • (2) Reaction of two states (with conformational change): Kd = koff1/kon1 × (1 + kon2/koff2) − 1, where Kd is the equilibrium dissociation constant, koff1 is the dissociation rate constant, kon1 is the association rate constant, kon2 is the direct association rate constant for the CP ↔ transition CP*, koff2 is the inverse dissociation rate constant for the CP ↔ CP* transition.
The model describing the interaction was chosen according to the lowest chi2 parameter’s value. Chi2 is a measure of the average squared residual between the experimental data and the fitted curve.

HCRG1 (peptide) gave a decrease of the 1 mM ATP-induced rise in intracellular Ca2+ (Fluo-8AM) in mouse Neuro-2a cells with endogenous P2X7, peptide 0.1-10 uM pre-incubated 30 min; value at 0.1 uM [1] of 57.5%, a koff1 (two-state model, step CP to C + P) [2] of 0.0437 c^−1 and a koff2 (two-state model, step CP* to CP) [2] of 0.0015 c^−1. For the same molecule, the kon1 (two-state model, step C + P to CP) [2] was 920 mole^−1c^−1 and the kon2 (two-state model, step CP to CP*) [2] was 0.0085.

Molecule HCGS1.10 (peptide) has a decrease of the 1 mM ATP-induced rise in intracellular Ca2+ (Fluo-8AM) in mouse Neuro-2a cells with endogenous P2X7, peptide 0.1-10 uM pre-incubated 30 min; value at 0.1 uM [1] of 43.8%.

For `CC(C)(C)[N+]([O-])=Cc1ccccc1` [N-tert-butyl-α-phenylnitrone], the “ATP or Bz-ATP-induced ROS production” value [3] is given as “eliminated”.

For `CC(C)(C)c1cc(O)c(C(C)(C)C)cc1O` [BHQ, 2,5,-di(t-butyl) hydroquinone], the “[Ca2+]i in Ca-free medium” value (Neuro-2a cells [4]) was “led to a significant increase in [Ca^2+]I”.

For `C[C@H](CCC(=O)O)C[C@H](C)C[C@H](C)C(=O)/C=C(\O)[C@H](C)C[C@H](C)C/C=C/[C@@H](C)[C@@H](O)[C@@H](C)[C@@H](O)C[C@@H]1CC[C@@](C)([C@H]2CC[C@@](C)([C@@H](C)O)O2)O1` [ionomycin], the “[Ca2+]i in Ca-free medium” value (Neuro-2a cells [4]) was “led to a significant increase in [Ca^2+]I”.

In the case of `Nc1ncnc2c1ncn2[C@@H]1O[C@H](COP(=O)(O)OP(=O)(O)OP(=O)(O)O)[C@@H](O)[C@H]1O` [ATP, adenosine triphosphate, reference compound], the “increase in percentage of dead cells vs cells without ATP” value (Neuro-2a cells [5]) is reported as “up to 40%”, the “intracellular Ca2+ after ATP” value (P2X7 in Neuro-2a cells) is reported as “strong sustained increase in [Ca^2+]I” and the “[Ca2+]i response to ATP in Ca2+-free medium” value (Neuro-2a cells [4]; 1 mM ATP, Ca2+-free medium) is reported as “did not cause an increase in [Ca^2+]I”.

For HCGS1.19 (peptide), the decrease of the 1 mM ATP-induced rise in intracellular Ca2+ (Fluo-8AM) in mouse Neuro-2a cells with endogenous P2X7, peptide 0.1-1 uM pre-incubated 30 min [1] was 54.8% and the 4 mM ATP-induced uptake of YO-PRO-1 by mouse Neuro-2a cells (P2X7 macropore), peptide 0.01-10 uM pre-incubated 10 min; dye uptake reduced to the printed percent [6] was 56.2%.

For “GSICLEPKVVGPCTAYLRRFYFDSETGKCTPFIYGGCEGNGNNFETLRACRAICRA (disulfide 4-54, 13-37, 29-50) [HCGS1.10]”, the Kd [7] was 26.3 µM, the koff ([7]; same value printed under koff1 and koff2, average ± SD) was “(4.5 ± 0.52) × 10^−3 c^−1” and the kon ([7]; same value printed under kon1 and kon2, average ± SD) was “(1.71 ± 0.19) × 10^2 mole^−1c^−1”.

HCGS1.36 (peptide) showed a decrease of the 1 mM ATP-induced rise in intracellular Ca2+ (Fluo-8AM) in mouse Neuro-2a cells with endogenous P2X7, peptide 0.1-1 uM pre-incubated 30 min [1] of 53.9% and a 4 mM ATP-induced uptake of YO-PRO-1 by mouse Neuro-2a cells (P2X7 macropore), peptide 0.01-10 uM pre-incubated 10 min; dye uptake reduced to the printed percent [6] of 47.8%.

B1: APHC3 (peptide)
chain: GSICLEPKVVGPCTAYFPRFYFNSETGKCTPFIYGGCEGNGNNFETLRACRGICRA
Molecule B1 has a decrease of the 1 mM ATP-induced rise in intracellular Ca2+ (Fluo-8AM) in mouse Neuro-2a cells with endogenous P2X7, peptide 0.1-10 uM pre-incubated 30 min; value at 0.1 uM [1] of 53.2%.
